The values that follow come from patent publication US20030119102A1.

The experiment addresses T1, rat Kv4.2 α-subunit (rat) (UniProt Q63881).
T1 sequence (looked up): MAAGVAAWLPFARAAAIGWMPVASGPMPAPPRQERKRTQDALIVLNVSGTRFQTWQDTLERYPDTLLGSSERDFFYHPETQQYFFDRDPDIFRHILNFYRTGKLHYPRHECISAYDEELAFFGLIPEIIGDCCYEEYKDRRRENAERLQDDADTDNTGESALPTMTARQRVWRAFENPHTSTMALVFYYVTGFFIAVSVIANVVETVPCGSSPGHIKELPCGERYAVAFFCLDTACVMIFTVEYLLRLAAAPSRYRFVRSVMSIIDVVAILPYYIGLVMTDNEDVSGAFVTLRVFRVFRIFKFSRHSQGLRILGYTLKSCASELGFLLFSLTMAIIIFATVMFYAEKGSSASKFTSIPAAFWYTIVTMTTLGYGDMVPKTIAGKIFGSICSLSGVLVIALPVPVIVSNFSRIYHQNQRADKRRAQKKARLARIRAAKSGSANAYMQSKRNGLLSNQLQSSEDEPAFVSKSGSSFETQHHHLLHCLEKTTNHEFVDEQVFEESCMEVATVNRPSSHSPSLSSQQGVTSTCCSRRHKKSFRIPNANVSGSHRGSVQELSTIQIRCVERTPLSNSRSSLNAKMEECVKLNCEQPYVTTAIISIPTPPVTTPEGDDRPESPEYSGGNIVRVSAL
Put plainly: cell-based or functional assay.

On to KChIP2ΔN2-67, for which the Inactivation time constant (ms, at 50 mV), CHO cells (rKv4.2 + vector: 28.2) was 110 ms; the Peak Current (nA/cell at 50 mV), CHO cells, patch clamp (rKv4.2 + vector: 0.60) was found to be 5.8 nA/cell; the Peak Current Density (pA/pF at 50 mV), CHO cells (rKv4.2 + vector: 25.5) stood at 203 pA/pF; the Recovery from Inactivation Time constant, CHO cells (rKv4.2 + vector: 272.2) is 36.1 ms.
